As usually defined, the Kd is the concentration at which binding is half-saturated.

For assay [1], the target named is T1, Fc-KAAG1 truncated mutant ending at amino acid 60 of KAAG1 (human, UniProt Q9UBP8 1-60, biotinylated).
T1 construct: also called KAAG1 truncated Fc-fusion (1-60); not shown: Fc part from vector pYD5
T1 sequence: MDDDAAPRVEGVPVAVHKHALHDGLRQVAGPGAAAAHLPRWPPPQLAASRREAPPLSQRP
Nature of the assay: ELISA: biotinylated Fc-KAAG1 1-60 on streptavidin plate, OD450. How it is done:
(§1) The expression and purification of human recombinant KAAG1 as an Fc fusion protein is found in PCT/CA2009/001586. To carry out the binding of Fc-KAAG1 to the antibody preparation, the Fc-KAAG1 was biotinylated with NHS-biotin (Pierce, Rockford, Ill.) and 10 ng/well was coated in a streptavidin 96-well plate for 1 h at room temperature. Purified chimeric 3A4 was added at increasing concentrations and incubated at room temperature for 30 minutes. Bound antibody was detected with HRP-conjugated human anti-kappa light chain antibody in the presence of TMB liquid substrate (Sigma-Aldrich Canada Ltd., Oakville, ON) and readings were conducted at 450 nm in microtiter plate reader. […] When the control unrelated IgG was incubated with the recombinant KAAG1, no binding activity was observed, even at the very highest concentration. […] The binding of 3A4 was compared to the binding of the chimeric 3D3 (described in Tremblay and Filion (2009)), that has different epitope specificity (see Example 2). The binding activity of 3A4 is very similar to 3D3 in this type of assay (see FIG. 1).
(§2) Based on the teachings of Tremblay and Filion (2009), it was known that other antibodies interacted with specific regions of recombinant KAAG1. Thus, anti-KAAG1 antibody 3C4, 3D3, and 3G10 interacted with the regions 1-35, 36-60, and 61-84 of KAAG1, respectively. […]
A general note: ELISA stands for enzyme-linked immunosorbent assay.

Assay [2] concerns the target T2, Fc-KAAG1 truncated mutant ending at amino acid 35 of KAAG1 (human, not fully specified; biotinylated).
T2 construct: also called KAAG1 truncated Fc-fusion (1-35); not shown: Fc part from vector pYD5
T2 chain: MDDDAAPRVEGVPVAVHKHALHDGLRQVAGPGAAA
In words: ELISA: biotinylated Fc-KAAG1 1-35 on streptavidin plate, OD450. On the procedure: as §1, §2

Assay [3] concerns the target T3, recombinant human KAAG1 (purified protein) (human, UniProt Q9UBP8 1-84, limits assumed).
T3 construct: also called gel filtration purified KAAG1
T3 sequence: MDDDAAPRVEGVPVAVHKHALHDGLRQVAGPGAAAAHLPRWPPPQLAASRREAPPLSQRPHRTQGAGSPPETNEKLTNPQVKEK
Nature of the assay: surface plasmon resonance (told in the summary); summary statement; form of 3A4 and SPR set-up not stated. Background: SPR reads the build-up and loss of mass on a sensor chip optically.

Assay [4] has as its target T3, recombinant human KAAG1 (purified …). In words: SPR (ProteOn XPR36), antibody captured on anti-human IgG Fc, KAAG1 as analyte, 25 C; parent LcHc (chimeric 3A4). On the procedure:
Immediately after the activation, a 13 μg/mL solution of anti-human IgG Fc fragment specific in 10 mM NaOAc pH 4.5 was injected in the analyte direction at a flow rate of 25 μL/min until approximately 8000 resonance units (RUs) were immobilized. Remaining active groups were quenched by a 300 s injection of 1M ethanolamine at 30 μL/min in the analyte direction, and this also ensures mock-activated interspots are created for blank referencing. The screening of the 3A4 variants for binding to KAAG1 occurred in two steps: an indirect capture of 3A4 variants from cell supernatant onto the anti-human IgG Fc fragment specific surface in the ligand direction (vertical) followed by a KAAG1 injection in the analyte direction. Firstly, one buffer injection for 30 s at 100 uL/min in the ligand direction was used to stabilize the baseline. […] Four to five 3A4 variants along with wild-type 3A4 were simultaneously injected in individual ligand channels for 240 s at flow 25 μL/min. […] The first ligand channel was left empty to use as a blank control if required. […]
Sensorgrams were aligned and double-referenced using the buffer blank injection and interspots, and the resulting sensorgrams were analyzed using ProteOn Manager software v3.0.

Assay [5] addresses T4, KAAG1 on the surface of cancer cells (SKOV-3, TOV-21G ovarian cancer cells) (human, UniProt Q9UBP8 31-84).
T4 construct: endogenous KAAG1 of human cancer cell lines; Also used for the Triton X-100 permeabilized SKOV-3 cells (named in the assay field); also called KAAG1 antigen; cell surface KAAG1
T4 sequence: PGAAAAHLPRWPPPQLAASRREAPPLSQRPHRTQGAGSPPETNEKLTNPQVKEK
Nature of the assay: flow cytometry on KAAG1-expressing cancer cells (told in the summary). On the technique in general: Flow cytometry measures light scatter and fluorescence of single cells or particles in a stream.

B1: 3A4 chimeric anti-KAAG1 antibody (mouse-human chimeric IgG1) (antibody, V domains shown)
VH: QIQLVQSGPEMVKPGASVKMSCKASGYTFTDDYMSWVKQSHGKSLEWIGDINPYNGDTNYNQKFKGKAILTVDKSSSTAYMQLNSLTSEDSAVYYCARDPGAMDYWGQGTSVTVSS
VL: DVVMTQTPLSLAVSLGDQASISCRSSQSLLHSNGNTYLEWYLQKPGQSPKLLIHTVSNRFSGVPDRFSGSGSGTDFTLKISRVEAEDLGVYYCFQGSHVPLTFGAGTRLELKR
notes: also called chimeric 3A4; murine 3A4
In the case of B1, the binding result in assay [1] and in assay [2] was “no binding (tested: not given on the sheet)” in each case. The Kd in assay [3] was roughly 0.057 nM; in assay [4], 0.057 nM. In addition, in assay [5], the “fold less antibody required compared to 3G10” value was roughly 10 fold.

The values above are taken from patent US20210054067A1 (ALETHIA BIOTHERAPEUTICS, published 2021).
